Test results: IntAct's records for PubMed 15385968

Target: xrcc4_human XRCC4 (UniProt Q13426)
Sequence (Q13426 whole entry): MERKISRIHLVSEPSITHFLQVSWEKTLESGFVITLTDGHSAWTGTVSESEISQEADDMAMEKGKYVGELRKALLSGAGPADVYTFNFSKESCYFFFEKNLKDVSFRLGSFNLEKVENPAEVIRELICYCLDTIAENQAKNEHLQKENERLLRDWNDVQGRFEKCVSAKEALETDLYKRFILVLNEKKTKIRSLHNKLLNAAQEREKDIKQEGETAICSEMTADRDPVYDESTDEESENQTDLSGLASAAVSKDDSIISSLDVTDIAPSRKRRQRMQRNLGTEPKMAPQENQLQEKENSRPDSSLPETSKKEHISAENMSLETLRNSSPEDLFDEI

## Bifunctional polynucleotide phosphatase/kinase (Homo sapiens), Q96T60 R35A
  effect of a mutation on the interaction: disrupting interaction
